Measured values reported in patent US6348573B1, “Compositions and methods for identifying apoptosis signaling pathway inhibitors and activators” (The Regents of the University of Michigan, priority 1998, dated 2002).

Experiments:
293T cells = test: β-galactosidase apoptosis assay, ARC co-transfection; type: cell-based, human
Description: Briefly, 2 μg of pcDNA3 or pcDNA3-ARC-Flag or -HA was co-transfected with 3 μg of pcDNA3 or caspase expression plasmids. Total amount of transfected plasmid DNA was always 5 μg. 293T cells were harvested after 22 hr and lysed with 0.2% NP-40 isotonic lysis buffer [Z. N. Oltvai et al., Cell 74:609-619 (1993)]. For immunoprecipitation, […] of soluble protein was incubated with 10 μg/ml of polyclonal anti-Flag, monoclonal anti-AU1 or polyclonal anti-HA antibody for 2 hr at 4° C. and tagged proteins were immunoprecipitated with Protein A-Sepharose 4B (Zymed Laboratories Inc., San Francisco, Calif.). Immunoprecipitates were subjected to 12% SDS-polyacrylamide electrophoresis and immunoblotted with anti-Flag, anti-AU1 or anti-HA antibodies. β-galactosidase apoptosis assay and Caspase-8 enzymatic assay: 5×10^5 293T cells were transfected with 0.3 μg of pcDNA3-β-gal plus each expression plasmid in triplicate. Cells were fixed 16 hrs after transfection, stained for β-galactosidase and assayed for morphological features of apoptosis [M. Muira et al., Cell 75:653-660 (1993)]. Statistical significance was determined by one-way ANOVA followed by Student-Neuman-Keuls post-doc comparisons. For caspase-8 enzymatic assay, 1.5×10^6 human 293T cells were co-transfected with pcDNA3, pcDNA3-ARC-Flag, pcDNA3-caspase-8 and pcDNA3-caspase-8-mt by a calcium phosphate method. Total amount of transfected plasmid DNA was always 2.5 μg. 293T cells were harvested 18hr after transfection and lysed with 0.2% NP-40 isotonic lysis buffer. Tagged proteins were immunoprecipitated and caspase activity was measured as described [N. Inohara et al., Proc. Natl. Acad. Sci. USA 94:10717-10722 (1997)].

[1] = biological target: T1, caspase-9, Flag-tagged (pcDNA3-caspase-9-Flag) (UniProt P55211 1-416); test: co-immunoprecipitation from co-transfected 293T cells, immunoblot
T1 construct: not shown: Flag tag
T1 sequence (looked up): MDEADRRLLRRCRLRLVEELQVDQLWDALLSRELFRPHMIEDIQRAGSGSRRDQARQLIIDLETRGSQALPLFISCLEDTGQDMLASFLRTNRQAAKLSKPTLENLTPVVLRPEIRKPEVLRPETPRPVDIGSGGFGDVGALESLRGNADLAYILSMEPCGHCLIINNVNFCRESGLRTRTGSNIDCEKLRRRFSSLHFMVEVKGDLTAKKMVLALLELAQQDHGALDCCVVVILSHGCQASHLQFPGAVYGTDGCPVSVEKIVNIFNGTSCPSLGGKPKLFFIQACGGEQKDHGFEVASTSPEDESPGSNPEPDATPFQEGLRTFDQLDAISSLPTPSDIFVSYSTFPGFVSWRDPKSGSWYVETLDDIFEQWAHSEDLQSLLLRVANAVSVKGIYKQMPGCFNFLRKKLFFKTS

[2] = biological target: T2, caspase-1, epitope-tagged (human, UniProt P29466 1-404); test: as above
T2 construct: also called pcDNA3-caspase-1-Flag
T2 sequence: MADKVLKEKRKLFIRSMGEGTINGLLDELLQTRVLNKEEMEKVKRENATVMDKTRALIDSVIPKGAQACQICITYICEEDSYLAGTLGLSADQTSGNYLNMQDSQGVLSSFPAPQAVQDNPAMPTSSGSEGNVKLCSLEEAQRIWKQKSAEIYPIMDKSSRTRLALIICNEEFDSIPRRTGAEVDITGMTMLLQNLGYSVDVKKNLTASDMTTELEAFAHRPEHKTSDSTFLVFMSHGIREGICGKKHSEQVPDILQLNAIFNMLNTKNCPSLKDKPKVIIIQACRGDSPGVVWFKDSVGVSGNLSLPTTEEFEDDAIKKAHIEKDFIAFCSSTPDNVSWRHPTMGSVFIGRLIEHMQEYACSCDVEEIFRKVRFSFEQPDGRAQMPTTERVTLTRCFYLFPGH

[3] = biological target: T3, caspase-3, epitope-tagged (UniProt P42574 1-277); test: as above
T3 construct: also called pcDNA3-caspase-3-Flag; not shown: position and
T3 sequence (looked up): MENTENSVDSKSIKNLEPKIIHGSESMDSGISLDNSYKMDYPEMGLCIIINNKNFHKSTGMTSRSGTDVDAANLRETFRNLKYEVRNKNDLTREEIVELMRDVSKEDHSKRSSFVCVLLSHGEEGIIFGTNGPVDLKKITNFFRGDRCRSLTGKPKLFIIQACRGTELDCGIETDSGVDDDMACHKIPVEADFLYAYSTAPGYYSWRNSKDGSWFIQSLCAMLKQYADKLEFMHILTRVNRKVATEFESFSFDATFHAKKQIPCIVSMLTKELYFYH

caspase-8 [4] = biological target: T4, caspase-8 (Homo sapiens, UniProt Q14790); test: Co-immunoprecipitation of ARC with caspase-8; type: binding; settings: caspase-8 deletion mutant
T4 construct: expressed in transfected cells; host or cells: human 293T cells
Description: (§1) Briefly, 2 μg of pcDNA3 or pcDNA3-ARC-Flag or -HA was co-transfected with 3 μg of pcDNA3 or caspase expression plasmids. Total amount of transfected plasmid DNA was always 5 μg. 293T cells were harvested after 22 hr and lysed with 0.2% NP-40 isotonic lysis buffer [Z. N. Oltvai et al., Cell 74:609-619 (1993)]. For immunoprecipitation, […] of soluble protein was incubated with 10 μg/ml of polyclonal anti-Flag, monoclonal anti-AU1 or polyclonal anti-HA antibody for 2 hr at 4° C. and tagged proteins were immunoprecipitated with Protein A-Sepharose 4B (Zymed Laboratories Inc., San Francisco, Calif.). Immunoprecipitates were subjected to 12% SDS-polyacrylamide electrophoresis and immunoblotted with anti-Flag, anti-AU1 or anti-HA antibodies.

caspase-8 [5] = test: Co-immunoprecipitation of ARC with caspase-8; type: binding, human; settings: 293T lysates
Description: as §1

caspase-1 = biological target: T5, caspase-1 (Homo sapiens, UniProt P29466); test: Co-immunoprecipitation of ARC with caspase-1; type: binding; settings: 293T lysates
T5 construct: expressed in transfected cells; host or cells: human 293T cells
T5 sequence (P29466 120-404): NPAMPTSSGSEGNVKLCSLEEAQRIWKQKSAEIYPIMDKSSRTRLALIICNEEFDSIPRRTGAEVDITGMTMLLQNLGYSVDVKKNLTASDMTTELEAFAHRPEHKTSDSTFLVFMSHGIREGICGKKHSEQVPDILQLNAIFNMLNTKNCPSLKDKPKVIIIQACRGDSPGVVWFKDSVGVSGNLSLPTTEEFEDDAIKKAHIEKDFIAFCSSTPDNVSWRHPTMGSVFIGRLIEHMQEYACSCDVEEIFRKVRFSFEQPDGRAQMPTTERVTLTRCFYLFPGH
Description: as §1

T4 sequence (Q14790 1-215 isoform Q14790-4): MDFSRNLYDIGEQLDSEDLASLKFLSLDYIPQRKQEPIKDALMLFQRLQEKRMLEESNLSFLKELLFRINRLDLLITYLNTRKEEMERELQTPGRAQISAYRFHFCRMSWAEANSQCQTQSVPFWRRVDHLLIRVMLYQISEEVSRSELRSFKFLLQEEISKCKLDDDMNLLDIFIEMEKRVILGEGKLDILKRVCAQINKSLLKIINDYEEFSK

B1: human ARC (Apoptosis Repressor with CARD domain), C-terminally Flag- or HA-tagged (other)
chain: MGNAQERPSETIDRERKRLVETLQADSGLLLDALLARGVLTGPEYEALDALPDAERRVRRLLLLVQGKGEAACQELLRCAQRTAGAPDPAWDWQHVGPGYRDRSYDPPCPGHWTPEAPGSGTTCPGLPRASDPDEAGGPEGSEAVQSGTPEEPEPELEAEASKEAEPEPEPEPELEPEAEAEPEPELEPEPDPEPEPDFEERDESEDS
notes: Entire open reading frame expressed in 293T cells; The two tagged constructs are merged here; also called ARC-Flag; ARC-HA; not shown: C-terminal FLAG or HA tag
293T cells; ARC alone
  induction of apoptosis by expression of ARC: did not induce apoptosis
293T cells; co-expression with ARC
  apoptosis induced by C. elegans CED-3: inhibited
  apoptosis induced by CLARP: inhibited
  apoptosis induced by FADD: inhibited
  apoptosis induced by TRADD: inhibited
  apoptosis induced by caspase-8: inhibited caspase-8-induced killing in a dose-dependent manner
  apoptosis induced by stimulation of CD95/Fas receptor: partially but significantly inhibited
  apoptosis induced by stimulation of TNF-R1 receptor: partially but significantly inhibited
  apoptosis induced by stimulation of TRAMP/DR3 receptor: partially but significantly inhibited
  apoptosis mediated by caspase-9: not
[1]
  binding result: no binding
[2]
  binding result: no binding
[3]
  binding result: no binding
caspase-8 [4]
  association with the N-terminal death effector domain (DED) of caspase-8: associated
caspase-8 [5]
  co-immunoprecipitation with caspase-8: co-immunoprecipitated
caspase-1
  co-immunoprecipitation with caspase-1: not
